Each sequence was assayed against T1, MntR (Bacillus subtilis) (UniProt P54512) (assay: EMSA). Details: 10 mM Tris-HCl pH 7.5, 43 mM NaCl, 1 mM MnCl2, 1 mM DTT, 5% glycerol, 1 ug poly[dI-dC] per 14 ul, 23 C 15 min; 5% PAGE in 40 mM Tris-acetate at 4 C.
T1 sequence: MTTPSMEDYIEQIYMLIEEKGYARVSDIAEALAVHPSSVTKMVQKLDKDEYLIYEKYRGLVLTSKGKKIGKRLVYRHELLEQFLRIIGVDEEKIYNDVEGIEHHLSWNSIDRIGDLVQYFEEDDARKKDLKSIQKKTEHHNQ
With “ATGAAGCTTCAAAGAGTTTCCTTAAGGCAAATTATTTTATCTACATCATATGACCATCCCGGTTTCTTGTCAACCGAAAATGTTCAAAATACACTTCTGAATTTTTCCCTGTTATGTAACATGATATGTAGGGATTCGTGATAAGGTCCCATATAAAAAGACATCGTTTCATTTCGAAACGATGCCTCCTGTATCTAATGAGTCTAGGCTTCCTTCCGCAGCCCGCGGAATATAAGGCCCAGCAAGAACACGAAGATGGCTGCCCCGATGATGGCCGGGA (double strand) [PmntH del1]” the binding was “binds”.
In the case of “ATGAAGCTTTTATCTACATCATATGACCATCCCGGTTTCTTGTCAACCGAAAATGTTCAAAATACACTTCTGAATTTTTCCCTGTTATGTAACATGATATGTAGGGATTCGTGATAAGGTCCCATATAAAAAGACATCGTTTCATTTCGAAACGATGCCTCCTGTATCTAATGAGTCTAGGCTTCCTTCCGCAGCCCGCGGAATATAAGGCCCAGCAAGAACACGAAGATGGCTGCCCCGATGATGGCCGGGA (double strand) [PmntH del2]”, the binding is reported as “no binding”.

Each sequence was assayed against T2, AhrC (Bacillus subtilis) (UniProt P17893) (assay: EMSA). Details: 10 mM Tris-HCl pH 7.5, 43 mM NaCl, 1 mM MnCl2, 1 mM DTT, 5% glycerol, 1 ug poly[dI-dC] per 14 ul, 23 C 15 min; 5% PAGE in 40 mM Tris-acetate at 4 C.
T2 sequence: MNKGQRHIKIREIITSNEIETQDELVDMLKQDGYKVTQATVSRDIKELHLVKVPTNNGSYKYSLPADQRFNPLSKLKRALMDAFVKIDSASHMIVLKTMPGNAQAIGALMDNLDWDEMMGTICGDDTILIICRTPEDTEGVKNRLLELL
In the case of “CCGAAGCTTTCTCCTAAATCACAGTTTAAATCAATCTGAAACACAGAATCCCTCCTGCCAAAGCAAACGATATGCTTTATGTCATTTATTGTCCCGAAATTCGGAACGACTATTCCGAATTTTTGAACTTTATTTCATTATAAGTGAATCATATCAGTTTGTGAAATACTTTTGTCAGAAAACCTACCATGGTCCCAGAATAAAACCTGCCAAACTAAAGAATTCGAT (double strand) [PpxpA probe 3]”, the binding is reported as “binds more weakly”.
For “GCGCTTTCAGCGAATGTGTGGAAAAAATGTTTCGTTTTTTATTCGCTGTGTGATTTTGCGTAATATTTACAATTCGATAGAATGCGAGAAGCACTGGTGTCCTTGGGTTTGATGGGATTTTTGGCGGAGCAAATAAATTGGATGAGAGAAAAAGTGTTCCTTCGTCACTATTTTTCTGTGGCGGGTGAATCATGTTTCTGTAGACCCACTGCGGATCAGCTTTGTAAGATAATAATAGGAAAATGTGAGCGAGAGGAGGTTTTGTATGGAGAGATATGATGAACTG (double strand) [PmneS]”, the binding was “binds”.
In the case of “TTTAGTTTGGCAGGTTTTATTCTGGGACCATGGTAGGTTTTCTGACAAAAGTATTTCACAAACTGATATGATTCACTTATAATGAAATAAAGTTCAAAAATTCGGAAGCTTCCG (double strand) [PpxpA probe 5]”, the binding is reported as “binds more weakly”.
For “CCGAAGCTTTCTCCTAAATCACAGTTTAAATCAATCTGAAACACAGAATCCCTCCTGCCAAAGCAAACGATATGCTTTATGTCATTTATTGTCCCGAAATTCGGAACGACTATTCCGAATTTTTGAACTTTATTTCATTATAAGTGAATCATATCAGTTTGTGAAATACTTTTGTCAGAAAACCTACCATGGTCCCAGAATAAAACCTGCCAAACTAAAAAAGAGAGTCCATCTTAGGACTCTGAATTCGAT (double strand) [PpxpA probe 2]”, the binding was “binds”.

From paper PMC10448178
